Test results published in patent publication US20050182242A1, “Global analysis of protein activities using proteome chips” (priority 2001, published 2005).

B1: DFG5: yeast GST-HisX6 fusion protein on proteome chip (protein, UniProt Q05031 27-437, looked up)
Mannan …: MDLDTTSKTSICDATALIQGGMLDYYEGTRYGGTVGMFQSPYYWWHAGEAFGGMLENWFLCENDTYQELLYDALLAQTGSNYDYIPSNQTMVEGNDDQGIWGITVMGAVERNFTDPGDGKPGWLAMVQAVFNTMYSRWDSEHCGGGLRWQIFTWNSGYNYKNTVSNACLFQIAARLGRYTGNTTYLEVAEQVFDWLVDVGYVVLNDTANVFDGAEIDTNCTDITKIEWTYNHGIVLGGLAYMYNATNGTGEWETSLTKILNGAKSYFFKDSIMYESACQDYGTCNTDQRTFKSIFSRMLGLTSVMAPFTRDTIDDLIKTSAEAAAKSCNGGTDGHTCGLNWQKQTNDGYYGLGEQMSALEVIQNLLIHDRPAPYKEDNGGTSKGDANAGMNSSTTNVLQNNLNIKKGDRAG
modifications: GST-His6 tag
notes: yeast GST-HisX6 fusion protein on proteome chip
B2: DIN7: yeast GST-HisX6 fusion protein on proteome chip (protein, UniProt Q12086 1-430, looked up)
DNA damage-inducible protein …: MGIPGLLPQLKRIQKQVSLKKYMYQTLAIDGYAWLHRASCACAFELVMNKPTNKYLQFFIKRLQLLKRLKIKPYIVFDGDSLFVKNHTETRRRKKRLENEMIAKKLWSAGNRYNAMEYFQKSVDITPEMAKCIIDYCKLHSIPYIVAPFEADPQMVYLEKMGLIQGIISEDSDLLVFGCKTLITKLNDQGKALEISKDDFSALPENFPLGELSEQQFRNLVCLAGCDYTSGIWKVGVVTAMKIVKRYSEMKDILIQIERTEKLCFSKAFKQQVEFANYAFQYQRVFCPLSNQITTLNNIPKAVTNSHAEIIKIMKCIGSVVERGSGVRKDVINTKNIDHKVHEMIAKGELHPVDMASKLINRERKLKARKLFKVGLLGGESNSFNKKVEQPLVDTQDVLSERENSLDNKNASSIYMTSPAAISGTVPSIF
modifications: GST-His6 fusion tag
notes: as for B1
B3: RPL9B: yeast GST-HisX6 fusion protein on proteome chip (protein, UniProt P51401 1-191, looked up)
Large ribosomal subunit …: MKYIQTEQQIEIPEGVTVSIKSRIVKVVGPRGTLTKNLKHIDVTFTKVNNQLIKVAVHNGDRKHVAALRTVKSLVDNMITGVTKGYKYKMRYVYAHFPINVNIVEKDGAKFIEVRNFLGDKKIRNVPVRDGVTIEFSTNVKDEIVLSGNSVEDVSQNAADLQQICRVRNKDIRKFLDGIYVSHKGFIVEDM
modifications: GST-HisX6 tag
notes: as for B1
B4: CCT8: yeast GST-HisX6 fusion protein on proteome chip (protein, UniProt P47079 1-568, looked up)
T-complex protein 1 subunit …: MSLRLPQNPNAGLFKQGYNSYSNADGQIIKSIAAIRELHQMCLTSMGPCGRNKIIVNHLGKIIITNDAATMLRELDIVHPAVKVLVMATEQQKIDMGDGTNLVMILAGELLNVSEKLISMGLSAVEIIQGYNMARKFTLKELDEMVVGEITDKNDKNELLKMIKPVISSKKYGSEDILSELVSEAVSHVLPVAQQAGEIPYFNVDSIRVVKIMGGSLSNSTVIKGMVFNREPEGHVKSLSEDKKHKVAVFTCPLDIANTETKGTVLLHNAQEMLDFSKGEEKQIDAMMKEIADMGVECIVAGAGVGELALHYLNRYGILVLKVPSKFELRRLCRVCGATPLPRLGAPTPEELGLVETVKTMEIGGDRVTVFKQEQGEISRTSTIILRGATQNNLDDIERAIDDGVAAVKGLMKPSGGKLLPGAGATEIELISRITKYGERTPGLLQLAIKQFAVAFEVVPRTLAETAGLDVNEVLPNLYAAHNVTEPGAVKTDHLYKGVDIDGESDEGVKDIREENIYDMLATKKFAINVATEAATTVLSIDQIIMAKKAGGPRAPQGPRPGNWDQED
modifications: GST-His6 tag
notes: as for B1
B5: GFD1: yeast GST-HisX6 fusion protein on proteome chip (protein, UniProt Q04839 1-188, looked up)
mRNA transport factor GFD1: MPLESIWADAPDEEPIKKQKPSHKRSNNNKKNNNSRWSNESSSNNKKKDSVNKVKNNKGNHESKTKNKIKETLPREKKPPHSQGKISPVSESLAINPFSQKATEISPPPVSPSKMKTTKTQSKQDTASKMKLLKKKIEEQREILQKTHHKNQQQQVLMDFLNDEGSSNWVDDDEEELILQRLKTSLKI
modifications: GST-His6 tag
notes: as for B1
B6: MPD2: yeast GST-HisX6 fusion protein on proteome chip (protein, UniProt Q99316 23-277, looked up)
Protein disulfide isomerase …: YSEAVTMVKSIEQYFDICNRNDSYTMIKYYTSWCQHCKTLAPVYEELGELYAKKANKDDTPINFLEVNCEFFGPTLCTDLPGFPIIELVKPRTKPLVLPKLDWSSMKFHERLWQRIKTWFNNPKYQLDTSRVVRFEGSRNLKSLSNFIDTVRSKDTEERFIEHIFDDSRNCNEELRSQQLLCKAGKEYYSDTLSKLYGDVNGLEKERRRLEALIKQNGDDLSKEVKEKLKIIRLQLSLLSHIEDQLEDTSSHDEL
modifications: GST-His6 tag
notes: as for B1
B7: CAM1: yeast GST-HisX6 fusion protein on proteome chip (protein, UniProt P29547 2-415, looked up)
Elongation factor 1-gamma 1: SQGTLYANFRIRTWVPRGLVKALKLDVKVVTPDAAAEQFARDFPLKKVPAFVGPKGYKLTEAMAINYYLVKLSQDDKMKTQLLGADDDLNAQAQIIRWQSLANSDLCIQIANTIVPLKGGAPYNKKSVDSAMDAVDKIVDIFENRLKNYTYLATENISLADLVAASIFTRYFESLFGTEWRAQHPAIVRWFNTVRASPFLKDEYKDFKFADKPLSPPQKKKEKKAPAAAPAASKKKEEAKPAATETETSSKKPKHPLELLGKSTFVLDDWKRKYSNEDTRPVALPWFWEHYNPEEYSLWKVTYKYNDELTLTFMSNNLVGGFFNRLSASTKYMFGCLVVYGENNNNGIVGAVMVRGQDYVPAFDVAPDWESYDYAKLDPTNDDDKEFINNMWAWDKPVSVNGEPKEIVDGKVLK
modifications: GST-His6 tag
notes: as for B1

Experiments:
Conditions in all cases: liposome binding signal on yeast proteome chip, Cy3-streptavidin detection
[1] = system: phosphatidylcholine (PC) liposomes; assay: Yeast proteome chip probed with PC liposomes
From the text: (§1) To identify PI-binding proteins in yeast, liposomes were used as probes because the liposome provides the most relevant physiological condition to assay the interactors. Six types of liposomes were used. Each contains phosphatidylcholine (“PC”) with 1% (w/w) N-(biotinoyl)-1,2-dihexadecanoyl-sn-glycero-3-phosphoethanolamine, triethylammonium salt (biotin DHPE). The biotinylated lipid serves as a label that can be detected by Cy3-streptavidin (21). In addition to PC, the five other liposomes contain either 5% (w/w) PI(3)P, PI(4)P, PI(3,4)P2, PI(4,5)P2, or PI(3,4,5)P3 (FIG. 3A).
(§2) The protein-liposome interaction was assayed as follows. Appropriate amounts of each lipid in chloroform were mixed and dried under nitrogen. The lipid mixture was resuspended in TBS buffer by vortexing. The liposomes were created by sonication. Blocked proteome chips were washed three to five times in PBS buffer, and the extra liquid on the glass surface was removed by tapping the slides vertically on a KIMWIPE™. 200 μl of liposome solution was added to the proteome chip and immediately covered by a hydrophobic plastic cover slip (GRACE BIO-LAB™, USA). After trapped air bubbles were removed, the chip was incubated in a humidity chamber at RT for one hour. To remove the cover slip, the chip was immersed into large volume of PBS buffer (50 ml), so that the slip would float away. The chip was then moved to a second PBS bath (>50 ml) and washed 3×5 min with shaking at RT. After removing extra liquid on the surface of the chip, about 100 μl of Cy3 or Cy5 conjugated streptavidin (PIERCE™, USA; 1:2000 to 1:4000 dilution) was added to the surface and covered by a hydrophobic plastic cover slip (GRACE BIO-LABS™, USA). The chip was incubated for greater than 30 min in the dark at RT. The chip was then washed as described above. To completely remove the liquid on the chip, the chip was spun to dryness at 1500-2000 rpm for 5-10 min at RT.
(§3) • 1. S. Fields, Y. Kohara, D. J. Lockhart, Proc. Natl. Acad. Sci. 96, 8825 (1999); A. Goffeau et al., Science 274, 563 (1996). • 2 P. Ross-Macdonald et al., Nature 402, 413 (1999); J. L., DeRisi, V. R. Iyer, P. O. Brown, Science 278, 680 (1997); E. A. Winzeler et al., Science 285, 901 (1999). P. Uetz et al., Nature 403, 623 (2000); T. Ito et al., Proc. Natl. Acad. Sci. USA. 97, 1143 (2000) • 3 H. Zhu, M. Snyder, Curr. Opin. Chem. Biol. 5, 40 (2001). • 4 M. R. Martzen et al., Science 286, 1153 (1999). • 5 H. Zhu et al., Nat. Genet. 26, 283 (2000). • 6 G. MacBeath, S. L. Schreiber, Science 289, 1760 (2000). • 7 A. Caveman, J. Cell Sci. 113, 3543 (2000). • 8 P. Arenkov et al., Anal. Biochem 278, 123 (2000). • 9 D. A. Mitchell, T. K. Marshall, R. J. Deschenes, Yeast 9, 715 (1993). The expression vector pEGH was created by inserting an RGS-HisX6 epitope tag between the GST gene and the polycloning site of pEG(KG). The yeast ORFs were cloned using the strategy described previously (5), except every step was done in a 96-well format. Plasmid DNAs confirmed by DNA sequencing were reintroduced into both yeast (Y258) and E. coli (DH5a). […] 0.1 mM calcium was present in buffers in all subsequent steps. The chip was washed three times with PBS at RT. Cy3-conjugated streptavidin (Jackson IR, USA) (1:5000 dilution) was added to the chip and incubated for 30 min at RT. After extensive washing, the chip was spun dry and scanned using a microarray scanner; the data was subsequently acquired with the GENEPIX™ array densitometry software (Axon, USA). • 12 S. S. Hook, A. R. Means, Annu. Rev. Pharmacol. Toxicol.41, 471 (2001). • 13 M. S. Cyert, R. Kunisawa, D. Kaim, J. Thorner, Proc. Natl. Acad. Sci. USA 88, 7376 (1991). • 14 D. A. Stirling, K. A. Welch, M. J. Stark, EMBO J. 13, 4329 (1994). • 15 F. Bohl, Kruse, EMBO J. 19, 5514 (2000); E. Bertrand et al., Mol. Cell 2, 437 (1998). • 16 D. C. Winter, E. Y. Choe, R. Li, Proc. Nat. Acad Sci. USA 96, 7288 (1999). • 17 C.

PI(3,4,5)P3 liposomes = assay: Yeast proteome chip probed with PI(3,4,5)P3 liposomes
From the text: as §1, §2, §3

PI(3,4)P2 liposomes = assay: Yeast proteome chip probed with PI(3,4)P2 liposomes
From the text: as §1, §2, §3

PI(4)P liposomes = assay: Yeast proteome chip probed with PI(4)P liposomes
From the text: as §1, §2, §3

PI(4,5)P2 liposomes = assay: Yeast proteome chip probed with PI(4,5)P2 liposomes
From the text: as §1, §2, §3

Molecule | PC [1] | PI(3, 4, 5)P3 (PI(3,4,5)P3 liposomes) | PI(3, 4)P2 (PI(3,4)P2 liposomes) | PI(4)P (PI(4)P liposomes) | PI(4, 5)P2 (PI(4,5)P2 liposomes)
B1 | 127.66 | 60.98 | 48.66 | 19.81 | 
B2 | 21.42 | 14.06 | 10.05 | 33.75 | 14.59
B3 | 6.46 | −0.45 | 7.38 | 12.85 | 1.96
B4 | 22.30 | 33.97 | 7.53 | 23.52 | 
B5 | 4.99 | 3.38 | −0.78 | −0.22 | 
B6 | 25.24 | 15.07 | 31.71 | 37.45 | 8.71
B7 | 18.49 | 4.16 | −0.16 | 21.99 | 25.69
